For experiment [1], the target named is recombinant Factor VIIa (rFVIIa).
Experiment [2] shares this target. Description: BLI; Octet Red, Ni-NTA biosensors, 37 °C, 1000 rpm; association 180 sec, dissociation 10 min; 1:1 model, global fit; the legend of Figure 4b says rFVIIa was immobilised. On the technique in general: Biolayer interferometry detects binding as a change in optical thickness at a sensor tip.

Sequence of recombinant Factor VIIa (rFVIIa) (P08709 whole entry): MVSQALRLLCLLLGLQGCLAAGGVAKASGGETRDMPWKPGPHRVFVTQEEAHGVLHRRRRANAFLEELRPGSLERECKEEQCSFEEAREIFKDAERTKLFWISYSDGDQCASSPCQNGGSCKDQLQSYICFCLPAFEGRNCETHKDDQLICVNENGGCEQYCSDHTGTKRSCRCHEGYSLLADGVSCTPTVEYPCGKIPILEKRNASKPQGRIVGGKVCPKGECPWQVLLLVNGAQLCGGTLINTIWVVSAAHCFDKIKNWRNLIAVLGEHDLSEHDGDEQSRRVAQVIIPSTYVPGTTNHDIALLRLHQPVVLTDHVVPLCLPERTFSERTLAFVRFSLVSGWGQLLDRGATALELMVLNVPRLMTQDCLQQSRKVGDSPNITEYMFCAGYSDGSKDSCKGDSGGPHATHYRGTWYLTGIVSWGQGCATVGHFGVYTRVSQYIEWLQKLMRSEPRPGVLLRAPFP

B1: E-76 peptide (peptide)
peptide: ALCDDPRVDRWYCQFVEG
Consider B1, for which, in experiment [1], the prothrombin time (PT) in citrated human plasma, maximal fold prolongation over normal clotting time was 3 fold. In addition, in experiment [2], the Kd came out at 6.2 nM.

The term Kd denotes a measure of binding affinity in units of concentration.

(Values after paper PMC5118791.)
